Data set [1] addresses soluble fibrin monomers (DESAFIB).
The target of data set [2] is stimulatory thirteen amino acid peptide P368.
In a further data set the target is T1, lys-plasminogen, P00747.
T1 chain: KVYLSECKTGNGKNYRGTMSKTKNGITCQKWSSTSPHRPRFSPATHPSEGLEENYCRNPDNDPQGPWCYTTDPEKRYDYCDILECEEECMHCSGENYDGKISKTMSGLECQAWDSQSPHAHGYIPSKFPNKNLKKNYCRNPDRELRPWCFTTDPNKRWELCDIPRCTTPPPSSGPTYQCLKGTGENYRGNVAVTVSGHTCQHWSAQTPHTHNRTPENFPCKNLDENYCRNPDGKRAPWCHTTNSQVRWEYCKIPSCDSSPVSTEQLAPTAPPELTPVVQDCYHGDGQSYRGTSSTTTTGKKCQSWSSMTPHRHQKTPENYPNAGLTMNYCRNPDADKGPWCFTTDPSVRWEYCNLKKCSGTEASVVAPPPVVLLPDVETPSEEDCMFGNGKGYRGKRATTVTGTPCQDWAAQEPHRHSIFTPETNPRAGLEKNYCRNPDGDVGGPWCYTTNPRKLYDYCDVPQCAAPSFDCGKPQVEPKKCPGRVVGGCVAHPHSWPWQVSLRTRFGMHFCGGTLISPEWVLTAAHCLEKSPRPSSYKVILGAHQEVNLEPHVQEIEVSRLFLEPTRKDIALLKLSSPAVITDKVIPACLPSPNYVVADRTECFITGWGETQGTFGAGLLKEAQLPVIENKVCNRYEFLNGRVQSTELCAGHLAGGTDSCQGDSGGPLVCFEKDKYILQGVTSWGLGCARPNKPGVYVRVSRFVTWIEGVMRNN

B1: t-PA/R275E,K429Y, single-chain form (protein)
chain: SYQVICRDEKTQMIYQQHQSWLRPVLRSNRVEYCWCNSGRAQCHSVPVKSCSEPRCFNGGTCQQALYFSDFVCQCPEGFAGKCCEIDTRATCYEDQGISYRGTWSTAESGAECTNWNSSALAQKPYSGRRPDAIRLGLGNHNYCRNPDRDSKPWCYVFKAGKYSSEFCSTPACSEGNSDCYFGNGSAYRGTHSLTESGASCLPWNSMILIGKVYTAQNPSAQALGLGKHNYCRNPDGDAKPWCHVLKNRRLTWEYCDVPSCSTCGLRQYSQPQFEIKGGLFADIASHPWQAAIFAKHRRSPGERFLCGGILISSCWILSAAHCFQERFPPHHLTVILGRTYRVVPGEEEQKFEVEKYIVHKEFDDDTYDNDIALLQLKSDSSRCAQESSVVRTVCLPPADLQLPDWTECELSGYGKHEALSPFYSERLYEAHVRLYPSSRCTSQHLLNRTVTDNMLCAGDTRSGGPQANLHDACQGDSGGPLVCLNDGRMTLVGIISWGLGCGQKDVPGVYTKVTNYLDWIRDNMRP
As to B1, in data set [1], the Fold stimulation of kcat/Km by fibrin turned out to be 26000 fold; the “fibrin selectivity factor (specific activity in the presence of fibrin over that in the presence of fibrinogen)” value is “The fibrin selectivity factor for single chain t-PA/R275E,K429Y, however, is 146”; the “stimulation of plasminogen activation by co-factor (indirect chromogenic assay)” value (“stimulation of plasminogen activation” below) is reported as “dramatically stimulated by fibrin monomers”. Further, the “stimulation of plasminogen activation” value in data set [2] is on record as “virtually nonresponsive”. In the data set with lys-plasminogen, P00747, the Kcat of plasminogen activation in the absence of a cofactor was determined as 0.00046 s⁻¹, the Kcat of plasminogen activation in the presence of fibrin is 0.1 s⁻¹, the Kcat/Km of plasminogen activation in the absence of a cofactor is 78 M⁻¹ s⁻¹ and the Kcat/Km of plasminogen activation in the presence of fibrin was 2e+06 M⁻¹ s⁻¹. Also, in the data set with lys-plasminogen, P00747, the Km of plasminogen activation in the absence of a cofactor was 5.9 µM; the Km of plasminogen activation in the presence of fibrin is 0.07 µM; the “fold reduction of activity toward plasminogen without co-factor, against single chain t-PA/R275E” value was “reduced by a factor of 17”; the “percent of the activity of single chain t-PA/R275E toward plasminogen in the presence of fibrin” value is “approximately 40% of the activity of single chain t-PA/R275E”. Further, the “stimulation of plasminogen activation” value with fibrinogen was “virtually nonresponsive”.

The record behind these values is US6869778.
